The source of these data is patent US20250042994A1 (HAINAN SIMCERE ZAIMING PHARMACEUTICAL, published 2025).

Assay [1] has as its target T1, human CD19 exon1-3-His tag protein (human, UniProt P15391 20-186, limits assumed).
T1 construct: membrane-distal part of the extracellular region, made in HEK293E cells; not shown: His tag
T1 sequence (looked up): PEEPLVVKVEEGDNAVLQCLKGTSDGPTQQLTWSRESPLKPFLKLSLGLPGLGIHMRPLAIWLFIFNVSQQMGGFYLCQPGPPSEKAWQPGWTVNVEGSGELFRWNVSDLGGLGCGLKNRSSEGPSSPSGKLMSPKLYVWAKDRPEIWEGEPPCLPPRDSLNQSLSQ
The experiment in a line: ELISA on coated human CD19 exon 1-3-His. Here is the method:
Human CD19-his protein (purchased from ACROBiosystems, catalog number: CD9-H52H2) was diluted with PBS to a final concentration of 4 μg/mL, and then added to a 96-well ELISA plate at 100 μl/well. The plate was sealed with a plastic film and incubated overnight at 4° C., the plate was washed 2 times with PBS the next day, and then a blocking solution [PBS+2% (w/w) BSA] was added for blocking at room temperature for 2 h. The blocking solution was poured off, and 100 nM gradiently diluted CD19 chimeric antibody or control antibody was added at 50 μl/well. After incubation at 37° C. for 2 h, the plate was washed 3 times with PBS. […] TMB substrate was added at 50 μl/well, and incubated at room temperature for 10 min, and then a stop solution (1.0 N HCl) was added at 50 μl/well. The OD450 nm values were read by an ELISA microplate reader (Multimode Plate Reader, EnSight, purchased from Perkin Elmer).
CD19 protein contains 4 exons in the extracellular region, in which exons 1-3 are located at the membrane-distal end and exon 4 is located at the membrane-proximal end. […] To identify the distribution of antigen binding epitopes of the chimeric antibodies, human CD19 exon 1-3-His (membrane-distal end) was used to coat at 2 μg/mL according to the ELISA method in example 5.1.
In general terms: An ELISA detects its analyte on a solid surface through an enzyme-linked reagent.

The target of assay [2] is T2, Human CD19-his protein (human, UniProt P15391 20-291).
T2 construct: bought protein; also called recombinant human CD19-His; CD19 full-length protein; not shown: His tag
T2 sequence (looked up): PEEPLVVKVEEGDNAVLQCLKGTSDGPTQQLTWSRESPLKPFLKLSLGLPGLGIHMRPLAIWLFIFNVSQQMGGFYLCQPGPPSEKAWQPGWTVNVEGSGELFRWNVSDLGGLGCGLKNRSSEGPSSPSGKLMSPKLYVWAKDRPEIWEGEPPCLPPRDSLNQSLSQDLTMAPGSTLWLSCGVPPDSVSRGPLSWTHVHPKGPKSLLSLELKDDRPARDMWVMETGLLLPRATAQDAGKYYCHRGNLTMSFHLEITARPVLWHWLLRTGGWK
The experiment in a line: SPR Biacore, Ab captured on Protein A, CD19-His analyte. Summed up: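 Apparent KD came from a Langmuir 1:1 fit of double-referenced sensorgrams. Recombinant human CD19-His analyte (top 200 nM, 1:1 serial dilution, 5 concentrations) flowed over Protein A-captured antibody for 240 s at 30 μl/min, then buffer for up to 600 s. Running buffer HBS-EP+ at 25 °C; regeneration with 10 mM glycine pH 1.5.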
(In general: In SPR one partner is held on a chip, and binding of the other changes the refractive index at the surface.)

B1: F4.125.12 (antibody, human IgG1, V domains shown)
VH: EVKLVESGGGLVQPGGSLKLSCAASGFTFSTYTMSWVRQTPEKRLEWVAFISSGGGHINYPDTVKGRFTISRDNAKNTLYLQMSSLKSEDTAMYYCARHSYWFFDVWGAGTTVTVSS
VL: DVQITQSPSYLAASPGETITINCRASKNIDTYLAWYQEKPGKTNKLLIYSGSTLQSGIPSRFRGGGSGTDFTLTICSLEPEDFAMYYCQQHNEYPLTFGAGTKLELK
notes: human-murine chimeric antibody, human IgG1 constant
On to B1, for which the binding result in assay [1] is reported as “no binding (tested: 100 nM)”. In assay [2], this molecule had a dissociation constant (Kd) of 0.734 nM, a koff of 0.000204 s⁻¹ and a kon of 278000 M⁻¹ s⁻¹.

B2: F4.145.9 (antibody, human IgG1, V domains shown)
VH: EVQLVESGGGLVKPGGSLKLSCAAAGFAFSSYDMSWVRQIPEKRLEWVAYISAGGGNTYFLDTVKGRFTISRDHAKNTLSLQMSSLKSEDTAMYFCVRHGDYYRYFYAMDYWGQGSSVTVSS
VL: DIVMTQSHKFMSTSVGDRVSITCKASQDVGTAVAWSQQKPGQSPKLLIYWASTRHTGVPDRFTGSGSGTDFTLTISNVQSEDLADYFCQQFVTYPYTFGGGTKLEIK
notes: as for B1
In the case of B2, the binding result in assay [1] is listed as “no binding (tested: 100 nM)”. In assay [2], this molecule gave a dissociation constant (Kd) of 3.68 nM, a koff of 0.000591 s⁻¹ and a kon of 161000 M⁻¹ s⁻¹.

B3: F4.107.12 (antibody, human IgG1, V domains shown)
VH: EVQLQQSGPELVKPGASVKMSCKASGYTFTSYVLHWVRQKPGQGLEWIGYFNPYNDGTEYNEKFKGKAILTSDKSSSTAYMELNSLTSEDSAVYYCVGGTYYYGSSYPFAYWGQGTLVTVST
VL: DVVMTQISLSLPVSLGDQASISCRSSQSLIHSNGNTYLQWYLQKPGQSPKLLIYKVSNRLSGVPDRFSGSGSGTDFTLKISRVEAEDLGVYFCSQSTHVPYTFGGGTKLEIK
notes: as for B1
As to B3, the binding result in assay [1] is reported as “no binding (tested: 100 nM)”. In assay [2], this molecule gave a Kd of 1.09 nM, a koff of 0.000217 s⁻¹ and a kon of 200000 M⁻¹ s⁻¹.

B4: F4.180.1 (antibody, human IgG1, V domains shown)
VH: EVQLQQSAPELVKPGASVKMSCKTSGYTFTENIIHWVKQTHGKSLEWIGGINPDNGGTSYHQKFKGRTTLTIDKSSSTAYMELRSLTSDDSAVFFCARQAPLYWYFDIWGAGTTVTVSS
VL: DIVLTQSPASLAVSLGQRATISCRASESVDSYGNSLMHWFQQKPGQPPRLLIYRASNLESGIPARFSGSGSRTDFTLTITPVEADDVATYYCQQSNEDPWTFGGGTKLEIK
notes: as for B1
With B4, the binding result in assay [1] was “no binding (tested: 100 nM)”. In addition, in assay [2], the Kd worked out at 0.359 nM, the off-rate constant (koff) worked out at 8.52e-05 s⁻¹ and the on-rate (kon) amounted to 237000 M⁻¹ s⁻¹.

B5: F4.152.7 (antibody, human IgG1, V domains shown)
VH: QVQLQQPGAELVKPGASVKLSCKASGYTFTSYWMHWVKQRPGQGLEWIGEIDPSDSYTNYNQKFKGKATLTADKSSSTAYMQLSGLTSEDSAVYHCARGGDYDGYYVMDYWGQGTSVTVSS
VL: EIVLTQSPTTMAASPGEKITITCSASSSISSNYLHWYQQKPGFSPKLLIYRTSNLASGVPARFSGSGSGTSYSLTIGTMEADDVATYYCQQGSYIPRIFTFGSGTKLEIK
notes: as for B1
Consider B5, for which the binding result in assay [1] was “no binding (tested: 100 nM)”. In assay [2], this molecule yielded a Kd of 0.337 nM, a koff of 8.9e-05 s⁻¹ and a kon of 264000 M⁻¹ s⁻¹.

B6: F3.126.15 (antibody, human IgG1, V domains shown)
VH: QVQLQQPGAELVMPGASVKLSCKASGYTFTSYWMHWVKQRPGQGLEWIGEIDPSDSYTTYNQNFKGKATLTVDISTSTAYIQLSNLTSEDSAVYYCARLTGNYIHYWGQGTTLTVSS
VL: DIVMTQSHKFMSTSVGDRVSITCKASQDVSPAVAWYQQRPGQCPKLLIFSSSYRSTGVPDRFTGSGSGTDFTFTISSVQAEDLAVYYCQQHYSLPLTFGAGTKLELK
notes: as for B1
B6: in assay [1], the binding result was “no binding (tested: 100 nM)”. In assay [2], binding was characterised by a dissociation constant (Kd) of 13 nM, the koff came to 0.000799 s⁻¹ and the kon amounted to 61300 M⁻¹ s⁻¹.

In general, Kd refers to the constant that tells how readily two partners part at equilibrium. A lower Kd goes with tighter binding. One may read the koff as the first-order rate constant of dissociation. One may read the kon as a measure of how fast the partners come together.
